This passage reports binding signal results from article PMC6555819, “Comprehensive study of nuclear receptor DNA binding provides a revised framework for understanding receptor specificity”.

B1: NRC3_wobSeed44_DR1_A6C_o1 (dsDNA)
DNA 1: GCTGACTGAGGTTAAAGATCAGGGAACGTGGCGTCGGCGATTGACAGCGTAGAATGAAGG
DNA 2: CCTTCATTCTACGCTGTCAATCGCCGACGCCACGTTCCCTGATCTTTAACCTCAGTCAGC
B2: NRC3_wobSeed120_DR4_G5C_o1 (dsDNA)
DNA 1: GCCCCAGTAGGTTACGAGGGGGCATTCAGTGCGAATGCGATTGACAGCGTAGAATGAAGG
DNA 2: CCTTCATTCTACGCTGTCAATCGCATTCGCACTGAATGCCCCCTCGTAACCTACTGGGGC
B3: NRC3_wobSeed124_DR5_A29T_o1 (dsDNA)
DNA 1: GCCCTACTGGGCCATTCAGAGGTCATTGTTCATATGGCGATTGACAGCGTAGAATGAAGG
DNA 2: CCTTCATTCTACGCTGTCAATCGCCATATGAACAATGACCTCTGAATGGCCCAGTAGGGC
B4: NRC3_wobSeed121_DR5_A26T_o1 (dsDNA)
DNA 1: GCCAAACTAGGTCACCGGAAGGTCATAGTCCGCATGGCGATTGACAGCGTAGAATGAAGG
DNA 2: CCTTCATTCTACGCTGTCAATCGCCATGCGGACTATGACCTTCCGGTGACCTAGTTTGGC
B5: NRC3_wobSeed30_DR1_T5C_o1 (dsDNA)
DNA 1: GCACCAGCAGGCCAAGGGTCACTCAAGATTAGTCCGGCGATTGACAGCGTAGAATGAAGG
DNA 2: CCTTCATTCTACGCTGTCAATCGCCGGACTAATCTTGAGTGACCCTTGGCCTGCTGGTGC
B6: NRC3_wobSeed65_DR2_A5C_o1 (dsDNA)
DNA 1: GCATCTGTAGGTTATCGGGTCATTCAGTTTGCGCATGCGATTGACAGCGTAGAATGAAGG
DNA 2: CCTTCATTCTACGCTGTCAATCGCATGCGCAAACTGAATGACCCGATAACCTACAGATGC
B7: NRC3_wobSeed64_DR2_G19A_o1 (dsDNA)
DNA 1: GCTAGCCTAGGTCATTGGACCAGTATAGTACGCATCGCGATTGACAGCGTAGAATGAAGG
DNA 2: CCTTCATTCTACGCTGTCAATCGCGATGCGTACTATACTGGTCCAATGACCTAGGCTAGC
B8: NRC3_wobSeed33_DR1_T4G_o1 (dsDNA)
DNA 1: GCAGCTCTAGGTAAAAGTTCAGTGAATCCCGAGGATGCGATTGACAGCGTAGAATGAAGG
DNA 2: CCTTCATTCTACGCTGTCAATCGCATCCTCGGGATTCACTGAACTTTTACCTAGAGCTGC
B9: NRC3_wobSeed77_DR3_A18G_o1 (dsDNA)
DNA 1: GCACTTACGGGTCAACGGGGTTATAGCACGCGTATAGCGATTGACAGCGTAGAATGAAGG
DNA 2: CCTTCATTCTACGCTGTCAATCGCTATACGCGTGCTATAACCCCGTTGACCCGTAAGTGC
B10: NRC3_wobSeed28_DR1_T26C_o1 (dsDNA)
DNA 1: GCCCTACTGGGCCAAAGGTCATTGACTCCAATGCTCGCGATTGACAGCGTAGAATGAAGG
DNA 2: CCTTCATTCTACGCTGTCAATCGCGAGCATTGGAGTCAATGACCTTTGGCCCAGTAGGGC
B11: NRC3_wobSeed28_DR1_C12G_o1 (dsDNA)
DNA 1: B10 DNA 1 with C12G, C26T
DNA 2: B10 DNA 2 with G35A, G49C
B12: NRC3_wobSeed29_DR1_G24A_o1 (dsDNA)
DNA 1: GCGCTTACGGGTCAAAGGTTATAACATGAATAGAATGCGATTGACAGCGTAGAATGAAGG
DNA 2: CCTTCATTCTACGCTGTCAATCGCATTCTATTCATGTTATAACCTTTGACCCGTAAGCGC
B13: NRC3_wobSeed29_DR1_C4A_o1 (dsDNA)
DNA 1: B12 DNA 1 with C4A, A24G
DNA 2: B12 DNA 2 with T37C, G57T
B14: NRC3_wobSeed125_DR5_C15G_o1 (dsDNA)
DNA 1: GCCCTTACGGGTCAGTGACAGGTTATAGCATTTGGAGCGATTGACAGCGTAGAATGAAGG
DNA 2: CCTTCATTCTACGCTGTCAATCGCTCCAAATGCTATAACCTGTCACTGACCCGTAAGGGC
B15: NRC3_wobSeed66_DR2_A6T_o1 (dsDNA)
DNA 1: GCAATTCAGGGTCACTAGGCCAGAGTAGGTACGAATGCGATTGACAGCGTAGAATGAAGG
DNA 2: CCTTCATTCTACGCTGTCAATCGCATTCGTACCTACTCTGGCCTAGTGACCCTGAATTGC
B16: NRC3_wobSeed40_DR1_G16A_o1 (dsDNA)
DNA 1: GCTAGCCTAGGTCATAGGCCAGTATACCACGCGAACGCGATTGACAGCGTAGAATGAAGG
DNA 2: CCTTCATTCTACGCTGTCAATCGCGTTCGCGTGGTATACTGGCCTATGACCTAGGCTAGC
B17: NRC3_wobSeed53_DR2_G9A_o1 (dsDNA)
DNA 1: GCCCTTACAGGTCACGAGGTTATAGCACGACGAGCGGCGATTGACAGCGTAGAATGAAGG
DNA 2: CCTTCATTCTACGCTGTCAATCGCCGCTCGTCGTGCTATAACCTCGTGACCTGTAAGGGC
B18: NRC3_wobSeed76_DR3_A16C_o1 (dsDNA)
DNA 1: GCCCTACTGGGCCAACAAGGTCATTGATGCCGATAAGCGATTGACAGCGTAGAATGAAGG
DNA 2: CCTTCATTCTACGCTGTCAATCGCTTATCGGCATCAATGACCTTGTTGGCCCAGTAGGGC
B19: NRC3_wobSeed41_DR1_T4A_o1 (dsDNA)
DNA 1: GCAAATGTAGGTTAAGGGTCATTCAGGTTGGTTCGCGCGATTGACAGCGTAGAATGAAGG
DNA 2: CCTTCATTCTACGCTGTCAATCGCGCGAACCAACCTGAATGACCCTTAACCTACATTTGC
B20: NRC3_wobSeed25_DR1_A5T_o1 (dsDNA)
DNA 1: GCCATACTAGGTCAAAGGTCAAAGTCGAGCCAACCAGCGATTGACAGCGTAGAATGAAGG
DNA 2: CCTTCATTCTACGCTGTCAATCGCTGGTTGGCTCGACTTTGACCTTTGACCTAGTATGGC
B21: NRC3_wobSeed25_DR1_G24A_o1 (dsDNA)
DNA 1: B20 DNA 1 with T5A, G24A
DNA 2: B20 DNA 2 with C37T, A56T
B22: NRC3_wobSeed25_DR1_A6T_o1 (dsDNA)
DNA 1: B20 DNA 1 with T5A, A6T
DNA 2: B20 DNA 2 with T55A, A56T
B23: NRC3_wobSeed97_DR4_G27T_o1 (dsDNA)
DNA 1: GCCAAACTAGGTCACGAAAGGTCAAATTCGAATGACGCGATTGACAGCGTAGAATGAAGG
DNA 2: CCTTCATTCTACGCTGTCAATCGCGTCATTCGAATTTGACCTTTCGTGACCTAGTTTGGC
B24: NRC3_wobSeed97_DR4_C29G_o1 (dsDNA)
DNA 1: B23 DNA 1 with T27G, C29G
DNA 2: B23 DNA 2 with G32C, A34C

Positions count from the first letter of the chain named.

Sequence of PPARa:RXRa (Q07869 whole entry, chain 1 of 2): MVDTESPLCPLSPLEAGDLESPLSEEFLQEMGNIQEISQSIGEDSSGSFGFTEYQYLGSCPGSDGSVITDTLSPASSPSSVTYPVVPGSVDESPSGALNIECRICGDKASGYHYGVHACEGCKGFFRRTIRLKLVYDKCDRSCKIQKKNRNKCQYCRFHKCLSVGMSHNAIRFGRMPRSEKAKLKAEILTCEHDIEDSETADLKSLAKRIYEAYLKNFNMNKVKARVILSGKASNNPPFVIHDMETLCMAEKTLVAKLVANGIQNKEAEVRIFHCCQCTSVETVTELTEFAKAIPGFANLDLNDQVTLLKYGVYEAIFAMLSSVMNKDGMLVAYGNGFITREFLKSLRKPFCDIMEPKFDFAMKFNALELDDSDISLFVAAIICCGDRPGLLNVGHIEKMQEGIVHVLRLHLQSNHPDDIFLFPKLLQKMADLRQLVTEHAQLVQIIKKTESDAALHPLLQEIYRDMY
Sequence of PPARa:RXRa (P19793 whole entry, chain 2 of 2): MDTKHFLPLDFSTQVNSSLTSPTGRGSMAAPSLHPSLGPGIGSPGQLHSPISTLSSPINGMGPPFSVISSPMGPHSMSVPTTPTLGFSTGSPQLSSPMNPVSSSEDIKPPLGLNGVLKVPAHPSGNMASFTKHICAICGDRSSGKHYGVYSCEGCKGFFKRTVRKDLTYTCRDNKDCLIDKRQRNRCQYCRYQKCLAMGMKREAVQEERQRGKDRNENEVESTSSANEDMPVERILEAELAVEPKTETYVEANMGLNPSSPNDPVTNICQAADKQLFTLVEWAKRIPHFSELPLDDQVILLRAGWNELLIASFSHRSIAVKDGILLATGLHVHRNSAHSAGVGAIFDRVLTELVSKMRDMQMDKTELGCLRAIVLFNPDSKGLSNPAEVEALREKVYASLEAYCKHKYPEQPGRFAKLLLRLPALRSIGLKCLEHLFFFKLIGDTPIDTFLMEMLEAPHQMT

This data set has as its target PPARa:RXRa (Homo sapiens, UniProt Q07869;P19793 full;full). Put plainly: no ligand; PBM; 270 nM : 90 nM RXRa; PBS pH 7.4, 2% milk, 0.02% Triton X-100, 1 mM DTT, BSA, 0.4 mg/ml salmon testes DNA. The following applies: tags: GST kept;His cleaved; copies: 1;1; label: surface-attached array probe. Put shortly: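 Binding z-scores take random background probes as their reference. They come from custom Agilent 4×180K protein-binding microarrays incubated 1 h with ligand-free nuclear receptor dimers, with antibodies against each partner (one per run) detecting binding. Scanned fluorescence was regression-normalized.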
For B1, the binding signal is 3.82 PBM z-score against 500 random probes.

In the case of B2, the binding signal was 3.76 PBM z-score against 500 random probes.

As to B3, the binding signal was 3.73 PBM z-score against 500 random probes.

For B4, the binding signal was 6.6 PBM z-score against 500 random probes.

In the case of B5, the binding signal was 3.87 PBM z-score against 500 random probes.

B6: the binding signal is 3.8 PBM z-score against 500 random probes.

In the case of B7, the binding signal is 3.84 PBM z-score against 500 random probes.

On to B8, for which the binding signal was 3.86 PBM z-score against 500 random probes.

For the molecule B9, the binding signal is 6.51 PBM z-score against 500 random probes.

For the molecule B10, the binding signal was 6.99 PBM z-score against 500 random probes.

On to B11, for which the binding signal was 6.86 PBM z-score against 500 random probes.

On to B12, for which the binding signal was 7.28 PBM z-score against 500 random probes.

As to B13, the binding signal is 7.27 PBM z-score against 500 random probes.

With B14, the binding signal is 3.89 PBM z-score against 500 random probes.

On to B15, for which the binding signal was 6.63 PBM z-score against 500 random probes.

On to B16, for which the binding signal was 3.72 PBM z-score against 500 random probes.

On to B17, for which the binding signal was 6.65 PBM z-score against 500 random probes.

On to B18, for which the binding signal was 3.78 PBM z-score against 500 random probes.

For B19, the binding signal was 6.91 PBM z-score against 500 random probes.

Consider B20, for which the binding signal was 8.27 PBM z-score against 500 random probes.

In the case of B21, the binding signal is 8.04 PBM z-score against 500 random probes.

B22: the binding signal is 8.22 PBM z-score against 500 random probes.

B23: the binding signal is 7.06 PBM z-score against 500 random probes.

Consider B24, for which the binding signal is 6.97 PBM z-score against 500 random probes.
